Read-outs that look alike come from different tables or passages of the source.
T1: MMP2 (human, UniProt P08253 30-660)
T1 sequence (looked up): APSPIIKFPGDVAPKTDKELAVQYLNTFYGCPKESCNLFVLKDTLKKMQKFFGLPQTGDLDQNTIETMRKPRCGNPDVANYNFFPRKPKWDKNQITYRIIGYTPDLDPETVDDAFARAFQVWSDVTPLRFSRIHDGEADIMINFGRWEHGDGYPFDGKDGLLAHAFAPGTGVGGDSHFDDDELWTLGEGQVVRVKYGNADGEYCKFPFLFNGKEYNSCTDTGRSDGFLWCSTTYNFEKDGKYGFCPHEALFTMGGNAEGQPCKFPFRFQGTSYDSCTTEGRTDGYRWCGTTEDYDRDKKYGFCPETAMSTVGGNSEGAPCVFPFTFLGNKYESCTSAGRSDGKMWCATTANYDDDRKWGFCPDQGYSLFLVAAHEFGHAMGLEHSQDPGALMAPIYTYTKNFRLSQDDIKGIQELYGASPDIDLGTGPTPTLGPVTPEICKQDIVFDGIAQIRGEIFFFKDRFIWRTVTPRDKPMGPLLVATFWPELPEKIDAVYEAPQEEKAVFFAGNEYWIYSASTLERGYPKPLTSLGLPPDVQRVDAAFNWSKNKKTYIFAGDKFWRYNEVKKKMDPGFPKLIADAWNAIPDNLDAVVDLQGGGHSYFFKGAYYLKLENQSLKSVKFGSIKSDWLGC


Tests used:
Experiment in all cases: cell-based or functional assay
[1] = molecular target: T1, MMP2
[2] = molecular target: T2, MMP9 (human, UniProt P14780 107-457, limits assumed)
T2 sequence (P14780 107-457 limits assumed): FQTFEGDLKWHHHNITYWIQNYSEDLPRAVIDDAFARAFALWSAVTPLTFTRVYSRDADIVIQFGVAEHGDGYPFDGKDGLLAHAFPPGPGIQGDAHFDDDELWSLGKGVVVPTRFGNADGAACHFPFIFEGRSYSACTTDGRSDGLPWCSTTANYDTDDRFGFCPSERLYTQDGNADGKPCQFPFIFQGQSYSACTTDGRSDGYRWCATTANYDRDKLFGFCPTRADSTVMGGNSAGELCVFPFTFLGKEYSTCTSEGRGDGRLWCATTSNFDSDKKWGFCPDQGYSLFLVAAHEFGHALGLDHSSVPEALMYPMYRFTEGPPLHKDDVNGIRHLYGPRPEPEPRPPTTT

[3] = molecular target: MMP2 (human) (UniProt P08253)
[4] = molecular target: MMP9 (human) (UniProt P14780)
MMP9 (human), sequence (P14780 107-457 limits assumed): as above

[5] = molecular target: T1, MMP2; remark: listed apart in the source
[6] = molecular target: T2, MMP9; remark: listed apart in the source
[7] = molecular target: TNF alpha converting enzyme (TACE) (UniProt P78536)
TNF alpha converting enzyme (TACE) (UniProt P78536), sequence (P78536 215-671 limits assumed): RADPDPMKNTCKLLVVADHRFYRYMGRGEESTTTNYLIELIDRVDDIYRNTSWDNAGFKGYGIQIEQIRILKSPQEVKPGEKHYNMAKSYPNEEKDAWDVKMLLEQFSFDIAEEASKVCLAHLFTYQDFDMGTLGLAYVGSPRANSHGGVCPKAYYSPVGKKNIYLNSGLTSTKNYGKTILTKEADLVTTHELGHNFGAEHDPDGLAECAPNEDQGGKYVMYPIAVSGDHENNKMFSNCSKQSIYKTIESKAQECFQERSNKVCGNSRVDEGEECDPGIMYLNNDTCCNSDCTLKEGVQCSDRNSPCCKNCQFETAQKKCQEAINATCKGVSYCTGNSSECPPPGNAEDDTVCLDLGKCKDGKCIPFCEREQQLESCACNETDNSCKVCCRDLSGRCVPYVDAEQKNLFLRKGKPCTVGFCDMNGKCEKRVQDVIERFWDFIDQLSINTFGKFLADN

[8] = molecular target: T1, MMP2; remark: listed apart in the source
[9] = molecular target: T2, MMP9; remark: listed apart in the source
[10] = molecular target: T1, MMP2; remark: listed apart in the source
[11] = molecular target: T2, MMP9; remark: listed apart in the source
[12] = molecular target: TNF alpha converting enzyme (TACE) (UniProt P78536 215-671, limits assumed)
TNF alpha converting enzyme (TACE) (UniProt P78536 215-671, limits assumed), sequence (P78536 215-671 limits assumed): as above

Molecule	shift in MMP2 inhibitory activity (fold decrease) as compared to wild-type (fold decrease vs wild-type) [5]	shift in MMP9 inhibitory activity (fold decrease) as compared to wild-type (fold decrease vs wild-type) [6]	also measured
TIMP-3 [H78N, Q80T, K94N, E96T, D110N, K112T, R138T] (SEQ ID NO:26) fused to IgG (from UniProt P35625 24-211)			MMP2 EC50 (inhibition of MMP activity, FRET peptide substrate) [1]: 14 nM; MMP9 EC50 (inhibition of MMP activity, FRET peptide substrate) [2]: 26 nM
TIMP-3 [H78N, Q80T, K94N, E96T, D110N, K112T, R138T] (SEQ ID NO:26) fused to HSA (from UniProt P02768 25-609)			MMP2 EC50 (inhibition of MMP activity, FRET peptide substrate) [3]: 1.4 nM; MMP9 EC50 (inhibition of MMP activity, FRET peptide substrate) [4]: 5.1 nM
N-TIMP3 fused to HSA (from UniProt P02768 25-609)			MMP2 EC50 (inhibition of MMP activity, FRET peptide substrate) [3]: 38.7 nM; MMP9 EC50 (inhibition of MMP activity, FRET peptide substrate) [4]: 36.5 nM
TIMP-3 [K45N, V47T, P56N, G58T, K94N, E96T, R138T] (SEQ ID NO:4) (protein, 4 engineered N-linked glycosylation sites (# EG, Table 2)) CTCSPSHPQDAFCNSDIVIRANVTGKKLVKEGNFTTLVYTIKQMKMYRGFTKMPHVQYIHTEASESLCGLNLTVNKYQYLLTGRVYDGKMYTGLCNFVERWDQLTLSQRKGLNYTYHLGCNCKIKSCYYLPCFVTSKNECLWTDMLSNFGYPGYQSKHYACIRQKGGYCSWYRGWAPPDKSIINATDP	1	9	
TIMP-3 [K50N, V52T P56N, G58T, K94N, E96T, D110N, K112T, R138T] (SEQ ID NO:14) (protein, 5 engineered N-linked glycosylation sites (# EG, Table 2)) CTCSPSHPQDAFCNSDIVIRAKVVGKNLTKEGNFTTLVYTIKQMKMYRGFTKMPHVQYIHTEASESLCGLNLTVNKYQYLLTGRVYNGTMYTGLCNFVERWDQLTLSQRKGLNYTYHLGCNCKIKSCYYLPCFVTSKNECLWTDMLSNFGYPGYQSKHYACIRQKGGYCSWYRGWAPPDKSIINATDP	2	19	
TIMP-3 [K45S, F57N, K94N, E96T, D110N, K112T, R138T] (SEQ ID NO:12) (protein, 4 engineered N-linked glycosylation sites (# EG, Table 2)) CTCSPSHPQDAFCNSDIVIRASVVGKKLVKEGPNGTLVYTIKQMKMYRGFTKMPHVQYIHTEASESLCGLNLTVNKYQYLLTGRVYNGTMYTGLCNFVERWDQLTLSQRKGLNYTYHLGCNCKIKSCYYLPCFVTSKNECLWTDMLSNFGYPGYQSKHYACIRQKGGYCSWYRGWAPPDKSIINATDP	3	74	
TIMP-3 [K45N, V47T, F57N, K94N, E96T, D110N, K112T] (SEQ ID NO:6) (protein, 4 engineered N-linked glycosylation sites (# EG, Table 2)) CTCSPSHPQDAFCNSDIVIRANVTGKKLVKEGPNGTLVYTIKQMKMYRGFTKMPHVQYIHTEASESLCGLNLTVNKYQYLLTGRVYNGTMYTGLCNFVERWDQLTLSQRKGLNYRYHLGCNCKIKSCYYLPCFVTSKNECLWTDMLSNFGYPGYQSKHYACIRQKGGYCSWYRGWAPPDKSIINATDP	2	59	
TIMP-3 [K45N, V47T, F57N, K94N, E96T, R138T] (SEQ ID NO:7) (protein, 4 engineered N-linked glycosylation sites (# EG, Table 2)) CTCSPSHPQDAFCNSDIVIRANVTGKKLVKEGPNGTLVYTIKQMKMYRGFTKMPHVQYIHTEASESLCGLNLTVNKYQYLLTGRVYDGKMYTGLCNFVERWDQLTLSQRKGLNYTYHLGCNCKIKSCYYLPCFVTSKNECLWTDMLSNFGYPGYQSKHYACIRQKGGYCSWYRGWAPPDKSIINATDP	2	38	
TIMP-3 [P56N, G58T K94N, E96T, Q126N, R138T] (SEQ ID NO:21) (protein, 4 engineered N-linked glycosylation sites (# EG, Table 2)) CTCSPSHPQDAFCNSDIVIRAKVVGKKLVKEGNFTTLVYTIKQMKMYRGFTKMPHVQYIHTEASESLCGLNLTVNKYQYLLTGRVYDGKMYTGLCNFVERWDNLTLSQRKGLNYTYHLGCNCKIKSCYYLPCFVTSKNECLWTDMLSNFGYPGYQSKHYACIRQKGGYCSWYRGWAPPDKSIINATDP	2	22	
TIMP-3 [P56N, G58T, K94N, E96T, D110N, K112T, R138T] (SEQ ID NO:22) (protein, 4 engineered N-linked glycosylation sites (# EG, Table 2)) CTCSPSHPQDAFCNSDIVIRAKVVGKKLVKEGNFTTLVYTIKQMKMYRGFTKMPHVQYIHTEASESLCGLNLTVNKYQYLLTGRVYNGTMYTGLCNFVERWDQLTLSQRKGLNYTYHLGCNCKIKSCYYLPCFVTSKNECLWTDMLSNFGYPGYQSKHYACIRQKGGYCSWYRGWAPPDKSIINATDP	2	20	
TIMP-3 [P56N, G58T, H78N, Q80T, K94N, E96T, R138T] (SEQ ID NO:20) (protein, 4 engineered N-linked glycosylation sites (# EG, Table 2)) CTCSPSHPQDAFCNSDIVIRAKVVGKKLVKEGNFTTLVYTIKQMKMYRGFTKMPNVTYIHTEASESLCGLNLTVNKYQYLLTGRVYDGKMYTGLCNFVERWDQLTLSQRKGLNYTYHLGCNCKIKSCYYLPCFVTSKNECLWTDMLSNFGYPGYQSKHYACIRQKGGYCSWYRGWAPPDKSIINATDP	2	15	
TIMP-3 [H78N, Q80T, K94N, E96T, D110N, K112T, R138T] (SEQ ID NO:26) fused to Fc (Fc fusion, not shown: a dimerising Fc or GST) CTCSPSHPQDAFCNSDIVIRAKVVGKKLVKEGPFGTLVYTIKQMKMYRGFTKMPNVTYIHTEASESLCGLNLTVNKYQYLLTGRVYNGTMYTGLCNFVERWDQLTLSQRKGLNYTYHLGCNCKIKSCYYLPCFVTSKNECLWTDMLSNFGYPGYQSKHYACIRQKGGYCSWYRGWAPPDKSIINATDP			MMP2 EC50 (inhibition of MMP activity, FRET peptide substrate) [5]: 13.3 nM; MMP9 EC50 (inhibition of MMP activity, FRET peptide substrate) [6]: 32.9 nM
TIMP-3 [K50N, V52T, K94N, E96T, D110N, K112T, R138T, G173T] (SEQ ID NO:17) (protein, 5 engineered N-linked glycosylation sites (# EG, Table 2)) CTCSPSHPQDAFCNSDIVIRAKVVGKNLTKEGPFGTLVYTIKQMKMYRGFTKMPHVQYIHTEASESLCGLNLTVNKYQYLLTGRVYNGTMYTGLCNFVERWDQLTLSQRKGLNYTYHLGCNCKIKSCYYLPCFVTSKNECLWTDMLSNFTYPGYQSKHYACIRQKGGYCSWYRGWAPPDKSIINATDP	5	21	shift in TACE inhibitory activity (fold decrease) as compared to wild-type (fold decrease vs wild-type) [7]: 2
TIMP-3 [K45N, V47T, K94N, E96T, D110N, K112T, G173T] (SEQ ID NO:10) (protein, 4 engineered N-linked glycosylation sites (# EG, Table 2)) CTCSPSHPQDAFCNSDIVIRANVTGKKLVKEGPFGTLVYTIKQMKMYRGFTKMPHVQYIHTEASESLCGLNLTVNKYQYLLTGRVYNGTMYTGLCNFVERWDQLTLSQRKGLNYRYHLGCNCKIKSCYYLPCFVTSKNECLWTDMLSNFTYPGYQSKHYACIRQKGGYCSWYRGWAPPDKSIINATDP	2	9	shift in TACE inhibitory activity (fold decrease) as compared to wild-type (fold decrease vs wild-type) [7]: 2
TIMP-3 [H78N, Q80T, K94N, E96T, D110N, K112T, R138T] (SEQ ID NO:26) (other, 4 engineered N-linked glycosylation sites (# EG, Table 2)) CTCSPSHPQDAFCNSDIVIRAKVVGKKLVKEGPFGTLVYTIKQMKMYRGFTKMPNVTYIHTEASESLCGLNLTVNKYQYLLTGRVYNGTMYTGLCNFVERWDQLTLSQRKGLNYTYHLGCNCKIKSCYYLPCFVTSKNECLWTDMLSNFGYPGYQSKHYACIRQKGGYCSWYRGWAPPDKSIINATDP			MMP2 EC50 (inhibition of MMP activity, FRET peptide substrate) [8]: 1 nM; MMP9 EC50 (inhibition of MMP activity, FRET peptide substrate) [9]: 2.5 nM; shift in MMP2 inhibitory activity (fold decrease) as compared to wild-type [10]: 2 fold decrease vs wild-type; shift in MMP9 inhibitory activity (fold decrease) as compared to wild-type [11]: 6 fold decrease vs wild-type; shift in TACE inhibitory activity (fold decrease) as compared to wild-type [12]: 0.4 fold decrease vs wild-type
TIMP-3 [K50N, V52T, K94N, E96T, D110N, K112T, R138T] (SEQ ID NO:16) (protein, 4 engineered N-linked glycosylation sites (# EG, Table 2)) CTCSPSHPQDAFCNSDIVIRAKVVGKNLTKEGPFGTLVYTIKQMKMYRGFTKMPHVQYIHTEASESLCGLNLTVNKYQYLLTGRVYNGTMYTGLCNFVERWDQLTLSQRKGLNYTYHLGCNCKIKSCYYLPCFVTSKNECLWTDMLSNFGYPGYQSKHYACIRQKGGYCSWYRGWAPPDKSIINATDP	3	10	shift in TACE inhibitory activity (fold decrease) as compared to wild-type (fold decrease vs wild-type) [7]: 0.6
N-TIMP3 fused to Fc (Fc fusion, part only; not given: Fc carrier, unspecified, part only) chain, part: CTCSPSHPQDAFCNSDIVIRAKVVGKKLVKEGPFGTLVYTIKQMKMYRGFTKMPHVQYIHTEASESLCGLKLEVNKYQYLLTGRVYDGKMYTGLCNFVERWDQLTLSQRKGLNYRYHLGCN			MMP2 EC50 (inhibition of MMP activity, FRET peptide substrate) [5]: 6.9 nM; MMP9 EC50 (inhibition of MMP activity, FRET peptide substrate) [6]: 1.6 nM
N-TIMP3 (N-terminal TIMP-3 domain, AA 1-144) (other) CTCSPSHPQDAFCNSDIVIRAKVVGKKLVKEGPFGTLVYTIKQMKMYRGFTKMPHVQYIHTEASESLCGLKLEVNKYQYLLTGRVYDGKMYTGLCNFVERWDQLTLSQRKGLNYRYHLGCN			MMP2 EC50 (inhibition of MMP activity, FRET peptide substrate) [8]: 7.6 nM; MMP9 EC50 (inhibition of MMP activity, FRET peptide substrate) [9]: 1.7 nM
